Results reported in patent EP0931836B1, “Vasopermeability enhancing peptide of human interleukin-2 and immunoconjugates thereof” (priority 1998, dated 2004).

What was measured:
[1] = biological target: nucleohistones expressed in the nucleus of mammalian cells; assay: paraformaldehyde-acetone-treated cell assay, 125I-labeled F(ab')2
[2] = system: Raji tumor-bearing nude mice; assay: In vivo vasopermeability / biodistribution study, Raji lymphoma model (Lym-1 immunoconjugates)
Procedure: The Raji lymphoma cell line was used to produce heterotransplants in 6-week-old female nude mice by the subcutaneous injection of a 0.2 ml inoculum consisting of 4 x 10^7 Raji cells and 4 x 10^6 human fetal fibroblast feeder cells in the left thigh. Three days prior to injection, the mice were irradiated with 400 rads using a cesium irradiator to ensure a high take rate of the implanted cells. The tumors were grown for 14-18 days until they grew to approximately 1 cm in diameter.
To test the relative effects of the immunoconjugates on the biodistribution and tumor uptake of Lym-1 or TNT-1 in tumor-bearing mice, separate groups of 4-5 mice were given intravenous injections of 30 µg of antibody alone or antibody conjugate. At 2.5 hr after injection, each group received 50 µCi of ^125I-labeled Lym-1 or TNT-1 F(ab')2 fragment as tracer.
All animals were sacrificed 72 hr later, by sodium pentobarbital overdose, for biodistribution analysis. Various organs, blood, and tumor were removed, weighed, and samples were counted in a gamma counter. For each mouse, data were expressed as tumor:organ ratio (cpm per gram tumor/cpm per gram organ) and percent injected dose/gram (%ID/g).
Each peptide and rhIL-2, as well as their respective immunoconjugates with MAb Lym-1, were assayed for their ability to induce tumor vascular permeability and enhanced antibody uptake in Raji tumor-bearing nude mice.

[3] = biological target: variant of the HLA-Dr antigen expressed on the cell surface of human B-lymphocytes and malignant lymphomas (on Raji Burkitt's lymphoma cells) (human); assay: live cell radioimmunoassay on Raji cells, 125I-labeled F(ab')2

125I-labeled F(ab')2 fragment of murine monoclonal antibody TNT-1 (IgG2a)
immunoreactivity [1]: > 80%

3C: synthetic peptide fragment of IL-2, amino acid sequence 22-58 (SEQ ID NO: 1), permeability enhancing peptide (QMILNGINNYKNPKLTRMLTFKFYMPKKATELKHLQC) [Fragment 3C]
vasopermeability effects of Lym-1/IL-2 chemical conjugate ([2]; named peptide tested as vasoconjugate (joined to delivery vehicle, Lym-1), relative to IL-2 immunoconjugate): approximately 100%
Vasopermeability (%Lym-1/IL-2) ([2]; tumor vascular permeability and enhanced antibody uptake in Raji tumor-bearing nude mice, relative to Lym-1/IL-2, 30-40 pM of peptide per assay): 0 %Lym-1/IL-2

B1: 125I-labeled F(ab')2 fragment of murine monoclonal antibody Lym-1 (IgG2a) (antibody, from another filing, V domains shown)
VH: QLKESGPGLVAPSQSLSITCTISGFSLTSYGVHWVRQPPGKGLEWLVVIWSDGSTTYNSALKSRLSISKDNSKSQVFLKMNSLQTDDTAIYYCASHYGSTLAFASWGHGTLVTVSA
VL: DIQMTQSPASLSASVGETVTIICRASVNIYSYLAWYQQKQGKSPQLLVYNAKILAEGVPSRFSGSGSGTQFSLKINSLQPEDFGSYYCQHHYGTFTFGSGTKLEIK
percent bound (immunoreactivity) [3]: 80%
